The nanobody polyreactivity screen of Harvey et al. (2022)

Experiment: yeast display, Sf9 membrane polyspecificity reagent, FACS + sequencing; frameworks hold sequencing errors
How it was run: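 Synthetic nanobody libraries on Saccharomyces cerevisiae BJ5465 were galactose-induced for 36–48 hours, stained 1 hour at 4 °C with 10% biotinylated, detergent-solubilized Sf9 membrane reagent and enriched on streptavidin microbeads. FACS then separated cells into low and high (top ~1%) gates by anti-HA (expression) and streptavidin (reagent binding) fluorescence. Genes were colony-PCR amplified, MiSeq 2 × 250 sequenced and CDR-length filtered. A clone's polyreactivity label is that of its gate of origin.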

QVQLVESGGGLVQAGGSLRLSCAASGITFYWYAMGWYRQAPGKERELVASITGNGGGTSYADSVKGRFTISRDNAKNTVYLQMNSLKPEDTAVYYCNTSVGGKEYDSWGQGTQVTVSS
polyreactivity (PSR sort gate): low polyreactivity

QVQLEESGGGLVQAGGSLRLSCAAYGSTFSYNAMGGSRPAPGTQRELVAAITSSGSSTYYADSVKGRFTISRYNAKNTVYFQMNSLKPEDTAVYYCNAEVLFVAGQVQRNSGDYWGQGTQVTVSS
polyreactivity (PSR sort gate): low polyreactivity

QVQLVESGGGLDQAGGSLRLSCAASGSISAIYTMGWYRQAPGKERELVAAISSGDSTNYADSVKGRFTISRDNAKNTVYLQMNSLKPEDTAVYYCATERSHLATGQGYYYVQTFYYWGQGTEVTVSS
polyreactivity (PSR sort gate): low polyreactivity

QVQLVESGGGLVQAGGSLRLSCAASGRTFDVYAMGWYRQAPGKERELVATISYRSARTYYADSVKGRFTISRDNAKNTVYLQMNSLKPEDTAVYYCAAYFETWHGVGYWGQGTQVTVSS
polyreactivity (PSR sort gate): high polyreactivity

QVQLVESGGGLVQAGGSLRLSCAASGRTFGWYAMGWYRQAPGKEREFVAVISRSGTNTYYADSVKGRFTISRDNAKNTVYLQMNSLKPEDTAVYYCAAVRSSQSYYYWGQGTQVTVSS
polyreactivity (PSR sort gate): high polyreactivity

QVKLVESGGGLVQAGGSLRLSCAAYGSTFTRNAMGWYRQAPGKERQLVAAITSGGSTNYADSVKGRFTISRDNAKNTVYLEMNSLKPEDTAVYYCAAGLGRYFYSWRYLYSIFDYWGQGTQVTVSS
polyreactivity (PSR sort gate): low polyreactivity

QVQLVESGGGLVQAGGSLRLSCAASGGIFAYYGMGWYRQAPGKERELVAAIWIGGNTYYADSVKGRFTISRDNAKNTVYLQMNSLKPVDTAVYYCATEGFVYSWLWEFEYWGQGTQVTVSS
polyreactivity (PSR sort gate): low polyreactivity

QVQLVESGGGLVHAGGSLRLSCAASGRTFIRYAMGWYIQAPGKERQLVAAISSSGGSTYYADSVKGRFTISRDNAKNTVYLQMNSLKPEDTAVYYCNAYVYYSHEDDYWGQGTQVTVSS
polyreactivity (PSR sort gate): high polyreactivity

QVQLVESGGGLFQAGGSLRLSCAASVSIFSWYTMGWYRQAPGKERELDAAITSSGGSTYYADSVKGRFTISRDNAKNTVYLQMNSLKPEDTAVYYCAAKSWFYYLHRPYVRRYDYWGQGTQVTVSS
polyreactivity (PSR sort gate): high polyreactivity

QVQLVESGGGLVQAGGSLRLSCAASGSIFRYNTMGWYRQAPGKVRELVATITRRGGSTYYADSVKGRFTISRDNAKNTVYLQMNSVKPEDTAVYYCIADNFGGPYNYWGQGTQVTVSS
polyreactivity (PSR sort gate): low polyreactivity

QVQLVESGGRLVQAGGSLRLSCAASGRIFVRNAKGWYRQAPGKERELVADITNGGSTNYADSVKGRFTISRDNAKNTVYLQMNSLKPEDTAVVYWAADTLGVYDGDYWGQGTQVTVSS
polyreactivity (PSR sort gate): low polyreactivity

QVQLVESGGGLVQAGGSLRLSCAASGRIFVNYAMGWYRQEPGKERELVAAITSDGSTSYADSVKGRFTISRDTAKNTVYLQMNSLKPDDPAVYYCAKDFFEHSPVSHTYSSSKYDYWGEGTQVTVSS
polyreactivity (PSR sort gate): low polyreactivity

QVQLVESGGGLVQAGGSLRLSCAASGSTFTLYVMGWYRQAPGKERELVAAITSSGDSTDYADSVKGRFTISRDNAKNTVYLQMNSLKPEDTAVYYCNVQPVYADHFTEFDYWGQGTQVTVSS
polyreactivity (PSR sort gate): low polyreactivity

QVQLVESGRGLVQAGGSLRLSCAASGFTFRTYAMGWYRQSPGKERELDAAITRNGGTYYADSVKGRFTISRDNAKITVYLPMNSLKPEDTARYYCATDPAYWGDLPPEDDYWGQGTQVTVSS
polyreactivity (PSR sort gate): low polyreactivity

QVQLVESGGGLVQAGGSLRLSCAASGRIFVGYAMGWYRQAPGKEREFVAAISRNGGRTYYADSVKGRFTISRDNAKNTVYLQMNSLKPEDTAVYYCATEKYVPSPGGYWGQGTQVTVSS
polyreactivity (PSR sort gate): high polyreactivity

QLQLVESGGGLVQAGGSLRLSCAASGYTFTSYTKGWYRQAPGKEWELVAAITWTGGRTYYADSVKGRFTISRDNAKNTVYLQMNSLKPEDTAVYFCAGSWRKVDYWGQGTQVTVSS
polyreactivity (PSR sort gate): high polyreactivity

QVQLVESGGGLVQAGGSLRLSCAASGRIFSYYAMGWYRQAPGKERELVAVISRRGDNTYYADSVKGRFTISRDNAKNTVYLQMNSLKPEDTAVYYCAAYSWYAKDFDYWGQGTQVTVSS
polyreactivity (PSR sort gate): high polyreactivity

QVQLVESGGGLVQAGGSLRLSCAASGSTFWHYAMGWYRQAPGKERELVAAISSGGGRTYYADSVKGRFTISRDNAKNTVYLQMNSLKPEDTAVYYCAARYYFYDYWGQGTQVTVSS
polyreactivity (PSR sort gate): high polyreactivity

QVQLVESGGGLVQAGGSLRLSCAASGSIFKYYAMGWYRQAPGKERELVAAISSGGSTKYADSVKGRFTISRDNAKNTVYLQMNSLKPEDTAVYYCAARDPSRHARRAYDYWGEGTQVTVSS
polyreactivity (PSR sort gate): low polyreactivity

QVQLVESGGGLVQAGGSLRLSCAASASTLRRYAMGLYRQAPGQERELVAAISGTGSRTYYADSVKGRFTISRDTAKITVYLQMNSLKPEDSAVYYCNASPYRLTENDYWGQGTQVTVSS
polyreactivity (PSR sort gate): high polyreactivity

QVQLVETGGGLVQAGGSHRLSCAASGSIFGKNVIGRYRQAPGKERELVAAITSGASTYYADSVKGRFTISRDNAKNTVYLQINSLKPEDTAVYYCAARRWRKYYSGYNYWGQGTQVSVSS
polyreactivity (PSR sort gate): high polyreactivity

QVQLVESGGGLVQAGGSLRLSCDASGSTFYPYVMGWYRQAPGKERELVARITWSGGSTYYADSVKGRFTISRDNAKNTVYLQMNSLKPEDTAVYYCAALRYVNLLAQAYEYWGQGTQVTVSS
polyreactivity (PSR sort gate): high polyreactivity

QVQLVESGGGLVQAGGSLRLSCAASGRIFTFYAMGWYRQAPGKERELVAAITSGGSTYYADSVKGRFTISRDNAKNTVYLQMNSLKPEDTAVYYCNALHHTQHDYWGQGTQVTVSS
polyreactivity (PSR sort gate): low polyreactivity

QVQLVESGGGLVQAGGSLRLSCAASGSILDYYVMGWYSQAPGKERELVAAIRGGGSTYYADSVKARFTISRDNAKNTVYLQMNSLKPEDTAVYYCAKDSQTARDFDYWGQGTQVTVSS
polyreactivity (PSR sort gate): low polyreactivity

QVQLVESGGGLVQAGGSLRLSCAASGRTFYTNAMGWSRQAPGKERELVAAISRGGGRTYYADSVKGRFTISRDNAKNTVYLQMNSLKPEDTAVYYCAASPYQGQGREYYYWGQGTQVTVSS
polyreactivity (PSR sort gate): high polyreactivity

QVQLVQSGGGLVQAGGSLRLSCADSGFIFFTNAMGRYRQAPGQDREFVAAISDSSGSTYYADSVKGRFTISRDNAKNTVYLQMNSLKPEDTAVYYCAAEYPQVTIIGYYYYWGQGTQVTVSS
polyreactivity (PSR sort gate): low polyreactivity

QVQLVESGGGLVPARGSLRLSCAASGFTFYRYAMGCYRQAPGKERELVAAITSRSGITYYADSVKGRFTISRDNAKNTVYLQMNSLKPEDTAVYYCAAYVYRSTEFDYGYWGQGTQVTVSS
polyreactivity (PSR sort gate): high polyreactivity

QVQLVESGGGLVQAGGRLRLSCAASGIVFKRYAKGWYRQAPGKEREFVATISYTGGRTYYADSVKGRFTISRDTAKNTVYLQMNSLKPEDTAVYYCATLYRSSKHQPLDYWGQGTQVTVSS
polyreactivity (PSR sort gate): high polyreactivity

QVQLVESGGGLVQAGGSLRLSCAASGFTFQTYAMGWYRQAPGKERELVATINSSGGGTYYADSVKGRFTNSRDNAKNTVYLQMNSLKPEDTAVYYCAADAVWFVGQAFDISDSTTYGYWGQGTQVTVSS
polyreactivity (PSR sort gate): low polyreactivity

QVQLVESGGGLVQAGCSLRLSCAASGSTSAYYVMGWNRQAPGKARELVAAIDFSGDSTYYADSVKGRFTISRDNAKNTVYLQMNSLKPEDTAVYYCAAELFYYSSLVTYEYWGQGTQVTVSS
polyreactivity (PSR sort gate): high polyreactivity

QVQLVESGGGLVQAGGSLRLSCAASGRTSGVYAMGWYRQAPGKERELVAAITSDSTYYADSVKGRFTISRDNAKNTVYLQMNSLKPEDTAVYYCAADSLARRYDYWGQGTQVTVSS
polyreactivity (PSR sort gate): low polyreactivity

QVQLVESGGGLVQAGGSLRLSCAASGRTFRYNAMGWYRQAPGKERELVATISSSGGSTSYADSVKGRFTISRDNAKNTVYLQMNSLKPEDTAVYYCAADEWGVRSEYDYWGQGTQVTVSS
polyreactivity (PSR sort gate): low polyreactivity

QVQLVESGGGLVQAGGSLRLSCSASGSTFSENAMGWYRQAPGKERELVAAISWGGGSTYYADSVKGRFTISRDKAKNTVYLQMNSLKPEDTSVYYCNADVFDDYCDFESDDWGQGTQVTVSS
polyreactivity (PSR sort gate): low polyreactivity

QVQLVESGGGLVQAGGSLRLSCAASGRTFRRYVMGWDRQSPGKERQLVAAIRWTGGSTYYADSVKGRFTISRDNAKNTVYLKMNSLKPEDTEVYYCAAYIRWSGGFDYWGQGTQVTVSS
polyreactivity (PSR sort gate): high polyreactivity

QVQLVESGGGLVQAGGSLRLSCAASGRTFPRYAMGWYRQAPGKERELVAAISGTGGSTYYADSVKGRFTISRDNAKNTVYLQMNSLKPEDTAVYYCAAAFRDGFTRRYGYWGQGTQVTVSS
polyreactivity (PSR sort gate): high polyreactivity

QVQLVESGGGLVQAGGTLRLTCAASGSIFHWNTMGWYRHAPGKESELFATITQRGGSTYYADSVKARFTLSRDNAKNTVYLQMNSLKPEDTAVYYCAAAIYRASRRRTSYSYDYWGQGTQVTVSS
polyreactivity (PSR sort gate): high polyreactivity

QVQLVESGGGLVQAGGSLRLSCAASGLIFVYYAMGWYRQAPGKERELVAAITSRGGSTYYADSVKGRFTISRDNAKNTVYLQMNSLKPEDTAVYYCAAVYRHGAFPRYGYWGQGTQVTVSS
polyreactivity (PSR sort gate): high polyreactivity

QVQIVESGGGLFQAGGSLRISCAASGFTFPNYAMGWYRQAPGKERELVAAITSGGGRSNYADCVKGRFTISRDNAKKTFYLEMNSLKPEDSAVYYCAKTRVRGSEFGYWGQGTQVTVSS
polyreactivity (PSR sort gate): low polyreactivity

QVQLVESGGVLVQAGGSLRLSCAASGFTFWSYAMGWYRQAPGKERELVAAISSGDNTYYADSVKGRFTISRDNAKNTVYLQMNSLKPEDTAVYYCNAFYYYEYDYWGQGTQVTVSS
polyreactivity (PSR sort gate): low polyreactivity

QVQLVESGGGLVQAGGSLRLSCAASGSIFGKNAMGWYRQAPGKERELVAAISFSGGSTYYADSVKGRFTISRDNAKNTVYLQMNSLKPEDTAVYYCAARKYSWYPAGGYDYWGQGTQVTVSS
polyreactivity (PSR sort gate): high polyreactivity

QVQLVESVGGLVQAGGSLSLSCAASGRIFVWYTMGWYRQAPGKEREFVASINGGGNTNYADSVKGRFTISRDNAKNTVYLQMNSLKPEDTADYYCAREYFGEMDYWGHGTQVTVSS
polyreactivity (PSR sort gate): low polyreactivity

QVQLVESGGGIVQAGGSLLLSCPASGRIFGVYAMGWYRQAPGKERELVAGINGGDSTYYADSVKGRFTISRDNAKNTVYLQMNSLKPEDTAVYYCAAEADESGSNYDYWGQGSQVTVSS
polyreactivity (PSR sort gate): low polyreactivity

QVQLVESGGGLVQAGGSLRLSCAASGSILRSYAMGWYRQAPGKERELVAAISSSGGSTYYADSVKGRFTISRDNAKNTVYLQMNSLKPEDTAVYYCAAATSRRFDYWGQGTQVTVSS
polyreactivity (PSR sort gate): high polyreactivity
